Patent US20210246195A1 (CZ BIOHUB SF, published 2021)

These binders were tested against T1, BSA (UniProt P02769 25-607) (assay: indirect ELISA heat map, hIgG subtracted).
T1 construct: also called bovine serum albumin; immobilized BSA
T1 sequence (P02769 25-607 limits assumed): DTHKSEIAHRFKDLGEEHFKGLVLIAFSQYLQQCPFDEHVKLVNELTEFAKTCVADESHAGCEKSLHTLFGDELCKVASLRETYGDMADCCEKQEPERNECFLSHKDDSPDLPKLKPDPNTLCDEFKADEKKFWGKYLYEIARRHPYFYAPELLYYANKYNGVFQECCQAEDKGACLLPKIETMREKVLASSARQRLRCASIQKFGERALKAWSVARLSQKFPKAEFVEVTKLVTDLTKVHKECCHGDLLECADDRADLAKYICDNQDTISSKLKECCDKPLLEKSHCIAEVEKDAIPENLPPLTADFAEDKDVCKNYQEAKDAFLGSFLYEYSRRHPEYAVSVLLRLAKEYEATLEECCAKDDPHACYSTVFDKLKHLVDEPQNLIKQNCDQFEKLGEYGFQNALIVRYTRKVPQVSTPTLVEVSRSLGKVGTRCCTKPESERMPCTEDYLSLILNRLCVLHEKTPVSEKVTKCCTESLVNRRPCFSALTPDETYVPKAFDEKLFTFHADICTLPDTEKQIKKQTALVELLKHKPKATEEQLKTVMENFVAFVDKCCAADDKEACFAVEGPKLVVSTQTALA

| binding result | Binder |
| --- | --- |
| no binding (tested: 2 ng/µL) | PA01P2B03 (antibody, V domains shown, subject PA01; also called Clone PA01P2B03) VH: EVQLVQSGAEVKKPGESLKISCKGSGYNFTSSWIGWVRQMPGKGLEWMGIIHPGDSDTRYSPSFQGQVTISADKSLTTAFLQWSSLKTSDTAIYYCARHGSTMLWGDAFDIWGQGTMVTVSS VL: SYELTQPPSVSLSPGQTARITCSGDALPKHYAYWYQQKPGQAPVLVIYKDTERPSGIPERFSGSSSGTTVTLTISGVQAEDEADYYCQSSDSTGEVFGGGTKLTVL |
| no binding (tested: 2 ng/µL) | PA01P2D10 (antibody, human IgG1, V domains shown) VH: EVLLLESGGGLVHPGGTLRLSCAASGFTFRNSAMTWVRQAPGKGLEWVSSIGGSGAKSYYADSVKGRFTISRDNSKNTLYLEMNTLRVDDTAIYYCAKDQLNCYDLWSGDYCWFDTWGQGTLVTVSS VL: not shown |
| no binding (tested: 2 ng/µL) | PA01P2D04 (antibody, human IgG1, V domains shown) VH: QVQLLQSGPEVKQPGASVQVSCQTSGYTFTGYYIHWVRQAPGQGLEWVGWINPNRGHTNYGPAFQGRLTLTADTSSSTAYLELTRLRSDDTAVYYCARDRLTGGRDAFEIWGQGTMLIVSS VL: DIQLTQSPSSLSASVGDRVTITCRASQSISSYLNWYQQKPGKAPKLLISVASSLQDGVPPRFSGSRSGTEFTLTISSLQPEDFAIYYCQQSYSLSWTFGQGTKVEIK |
| no binding (tested: 2 ng/µL) | PA01P2B12 (antibody, human IgG1, V domains shown) VH: QVQLVQSGAEVKQPGASVQVACQTSGYIFTAYYIHWLRQAPGQGLEWVGWINPNRGHTNYAPGFQGRLTLTADTSSSTAYLALTRLASDDTAVYYCARDRLTGGRDAFEIWGQGTMLIVSS VL: DIQLTQSPSSLSASVGDRVTITCRASQSVSSYLNWYQQKPGEAPKLLISAASSLQDGVPPRFSGSRSGTEFTLTISSLQPEDFAIYYCQQSYSLWWTFGQGTKVEIK |
| no binding (tested: 2 ng/µL) | PA01P2D11 (antibody, V domains shown, subject PA01; also called Clone PA01P2D11) VH: QLQLQESGSGLVKPSQTLSLTCDVSGDSMNDDVYTWSWIRQPPGRGLEWIGYISHTGNTFYNSSLQSRVTMSVDTSKNQFSLKLSSVTIADTAVYYCARLTFLFSAPFSSFNWFDPWGQGILVTVSS VL: QSVLTQPPSVSGAPGQTITISCTGTPSNFGADYDVHWYQQRPGTAPKLLIFADKHRPSGVPDRFSGSRSGTSASLAISGLQAEDEADYYCQSYDSGVVGLWVFGGGTKVTVL |
| no binding (tested: 2 ng/µL) | PA01P2B05 (antibody, human IgG1, V domains shown) VH: EVQLLESGGGLVQPGGSLRLSCVASGFTFSGHAMSWVRQAPGKGLEWVSGISGSGGSTYYADSVKGRFTISRDNSKKTVDLQMNNLRAEDTAIYYCAKDLHFDTSGYYYSMIFDYWGQGTLVPVSS VL: QSALAQPASVSGSPGQSITISCTGTSSDISDYNYVSWYQQHPGKAPKLILYDVNNRPSGVSSRFSGSKSGDTASLTISGLQPEDEADYYCSSYTSTKIFGGGTKVTVL |
| no binding (tested: 2 ng/µL) | PA01P2E10 (antibody, V domains shown, subject PA01; also called Clone PA01P2E10) VH: QVQLVQSGAEVKKPGASVKVSCKASGYTFTTYGISWVRQAPGQGLEWMGWISAYNGNTTYAQNFHARVTMTTDTSTSTAYMELRSLRSDDTAVYFCARTSARTITIFGVLIPAGLNLDYWGQGTLVTVSS VL: QSALTQPASVSGSPGQSITISCTGTGSDVGRYNYVSWYQQHPGKAPKFMIYDVSNRPSGVSNRFSASKSGNTASLTISGLQAEDEADYYCSSYTSTSTLVFGGGTKLTVL |
| no binding (tested: 2 ng/µL) | PA01P1D06 (antibody, V domains shown, subject PA01; also called Clone PA01P1D06) VH: QVTLRESGPALVEVTQTVTLTCNFSGFSLHTRGMYVNWIRQPPGKALEWLAVINWDDDKYYTPSLKNRLTISKDTSKNQVVLTMTNMDPVDTATYYCARTDYGGYGPEGFDYWGQGTLVTVSS VL: EIVMTQSPATLSVSPGESATLSCRASQSVRSNLAWYQQKPGQAPRLLIYGASTRAPGVPARFTGSESGREFTLTISSLQSEDFAVYYCQQYNNWPPYTFGQGTKLEIK |
| no binding (tested: 2 ng/µL) | PA01P4C11 (antibody, V domains shown, subject PA01; also called Clone PA01P4C11) VH: EVQLLESGGGLLQLGGSLRLSCAASGFTFSSYVMSWVRQAPGKGLEWVSLITGSGGNTYYADSVKGRFTISRDNSKNTLFLQMNSLRVEDTAIYYCVKTDFYDSSGYYFHDAFHIWGQGTMVTVSS VL: QTVVTQEPSLTVSPGGTVTLTCASSTGSVTSGYYPNWFQQKPGQAPRTLIYGTSNKHSWTPARFSGSLLGGKAALTLSDVQPEDEAEYYCLLYYGGAYVFGTGTKVTVL |
| no binding (tested: 2 ng/µL) | PA01P2B10 (antibody, V domains shown, subject PA01; also called Clone PA01P2B10) VH: QVQLQQWGAGLLKPSETLSLTCGVHGGSLNNYYWSWIRQPPGKGLEWIGEVYHSGSINYNPSLKSRVTMSVDTSKNQFSFNLSSVTAADTAVYYCARGAYDSRGFWTLDAFNTWGQGTMVIVSS VL: DIQMTQSPSALSASLGDRVTITCRASESINSWLAWYQQKPGKAPKLLIYKASTLESGVPSRFSGSGSGTEFTLTISSLQPDDFATYYCHQYNRYSYTFGQGTKLDIK |

Second part, the binder before the results:

| Binder | binding result |
| --- | --- |
| PA01P2E07 (antibody, V domains shown, subject PA01; also called Clone PA01P2E07) VH: QLQLQESGSGLVKPSQTLSLTCAVSGGSITSGTYSWTWIRQSPEKGLEWIGYIYYTGSTYYNPSLGRRVTISGDTSNNEFSLNLKSVTAADTAVYYCARGIHRGGVLDFWGQGILVTVSS VL: EIVLTQSPATLPLSPGERATLSCRASQSLDKYLAWYQQKPGQAPRLLIYDTSKRATGIPARFSGSGSGTDFTLTISSLEPEDFAVYFCQQRNNWPPYTFGQGTKVEMK | no binding (tested: 2 ng/µL) |
| PA01P2C04 (antibody, V domains shown, subject PA01; also called Clone PA01P2C04) VH: QVQLQESGPGLVKPSETLSLTCSVSGGSISSHYWSWIRQPPGRGLEWIAYISYSGRTKYNPSLKSRVTISEDTSKNQFSLKLSSVTPADTAVYYCARIYGDYGPFIDYWGQGTLVTVSS VL: DIQMTQSPSSLSASVGDRVTITCRASQTISTYLNWYQQKPGTAPMLLIYGAYSLHSGVPSRFSGSGSGTDFTLTISSLQPEDFATYYCQQSSSLPLTFGGGTKVEIK | no binding (tested: 2 ng/µL) |
| PA01P2D09 (antibody, human IgG1, V domains shown, also called PA1P2D09) VH: EVQLLESGGGLVQPGGSLRLSCAVSGLKFSSYAMSWVRQAPGKGLEWVSVVSGSSGSTFYAVSVEGRFSISRDNSNNMLYMDMHSLRVEDTAKYYCAKVVGWYYDRNGNRRPKGFRAFDVWGQGTMVIVSS VL: QSVLTQPPSASGTPGQRITIACSGTTSNIGGNSVNWYQQFPGAAPRLLIFDYDQRPSGVPARFSGSSSGSSGYLAISGLQSEDEADYYCSSWDDNLNGWVFGGGTKLTVL | no binding (tested: 2 ng/µL) |
| PA01P2C12 (antibody, V domains shown, subject PA01; also called Clone PA01P2C12) VH: HVQLQESGPGLVKSSETLSLTCNVSSDSFSDHYWSWVRQPAGKGLQWLGRIYNTGTTTYNPSLNRRITMSVDTSKNQFSLRLTSVTAADTAVYYCAARHYHYDKTIWGQGTLVTVSS VL: NFMLTQPHSVSESPGKTVTISCTRSSGSIASNYVQWYQQRPGSPPTTVIYEDNQRPSGVPDRFSGSIDSSSNSASLTISGLKPEDEADFYCQSYDSDDREVFGGGTRLTVL | no binding (tested: 2 ng/µL) |
| PA01P2B09 (antibody, V domains shown, subject PA01; also called Clone PA01P2B09) VH: QVEVVESGGGVVQPGKSLRLSCAASGFKFNVYGIHWVRQAPGKGLEWVAVVWYDGSNKYYADSVKGRFTISRDNSKNTTYLQMDSLRVDDTAVYYCARELQYSNYDYFYAMDVWGQGTTVTVSS VL: DIQMTQSPPSLSASVGDRVTITCRASQDIDNYLVWFQQKPGRAPKSLIYAASSLQSGVPSKFSGSGSGTEFTLTISSLQPEDFATYYCQQYNSFPYTFGQGTKLEIK | no binding (tested: 2 ng/µL) |
| PA01P2B04 (antibody, V domains shown, subject PA01; also called Clone PA01P2B04) VH: QVQLQQWGAGLLKPSETLSLTCTVIGTSFSNYYWSWIRQPPGKGLQWIGEITHSDSANYNPSLKSRVIISIDSSKNQLSLNLSSVTAADTAVYYCARGSKDYYDRSTFSWFDPWGQGTLVTVSS VL: EIVMTQSPATLSVSPGERATLSCRASQNISNKLAWYQQKPGQAPRLLIYDASTRATGVPARFSCSVSGTAFTLTINRLQSEDFAVYYCQQYYYWPPPYTFGHGTKLEIK | no binding (tested: 2 ng/µL) |
| PA01P2E08 (antibody, human IgG1, V domains shown) VH: QVQLVESGGGVVQPGRSLRLSCVASGFDLNAYGMHWVRQAPGKGLDWVAATSRGGTKKYYADSVKGRFTISRDVSKNTLYLQMGSLRTGDTAIYYCGVGMEDVFDIWGQGTMVTVSP VL: QSVLTQPPSVSAAPGQKVTISCSENNSNIGNRNVSWYQQLPGKAPKLFIYDNNERPSGIPARFSGSKSGTSATLVITGLQTGDEADYYCGTWDRSLSVWVFGGGTKLTVL | no binding (tested: 2 ng/µL) |
| PA01P2G07 (antibody, V domains shown, subject PA01; also called Clone PA01P2G07) VH: QVLLVQSGSEVKNPGASIRVSCKTSGYMFTNNGIAWVREVPTQGLEWMGWISTYSGATHYAPNLHGRITMTADTSASTAYMELRSLQSGDTGVYYCARLWFGKLGLDFWGQGTQVTVSS VL: QSVLTQPPSASGTPGQRVIISCSGSTSNIGTKTVNWYQHLPGTAPKLLIYNNNQRPSGVPDRFSGSKSGTSASLTISGLQSEDEADYYCAAWDDSLNGRGLFGPGTKVTVL | no binding (tested: 2 ng/µL) |
| PA01P2E05 (antibody, V domains shown, subject PA01; also called Clone PA01P2E05) VH: QVQLVESGGGFVKPGGSLRLSCAVSGFTFSDYYMSWVRQAPGKGLEWLSHISSDGSDTNYADSVKGRFSISRDNAKNSVFLQMNTLRVEDTAVYYCARNALTNAYDMSGFRNWGQGTLVTVSS VL: NFMLTQPHSVSESPGKTVILSCTRSSGSIASNYVRWYQQRPGSAPTTVIYEDSRRPSSVPDRFSGSIDSSSNSASLTISGLKTEDEADYYCQSFDSSSRKVVFGGGTKLTVL | no binding (tested: 2 ng/µL) |
| PA01P2C09 (antibody, V domains shown, subject PA01; also called Clone PA01P2C09) VH: QVDLVESGGGYVKSGGSLRLSCAASGFRFSDYYMSWVRQAPGKGLEWLSHISSDSSDTNYADSVKGRFSISRDNAKNSVFLQMNTLRAEDTAVYYCARNALTNAYDMSGFRNWGQGILVTVSS VL: NFMLTQPHSVSESPGKTVILSCTRSSGSIATNYVRWYQQRPGSAPTTVIYEDSRRPSSVPDRFSGSIDSSSNSASLTISGLRTEDEADYYCQSFDTSSRKVVFGGGTKLTVL | no binding (tested: 2 ng/µL) |
| PA01P3E08 (antibody, V domains shown, subject PA01; also called Clone PA01P3E08) VH: QVQLVQSGAEVKKPGASVKVSCKASGYTFIRYDIHWVRQATGQGLEWMGWMNPNNGKSGFAQKFEGRVTLTRNTSVTSTYMQLSSLGLEDTAVYYCVRAGYSYGWGFDYWGQGSLVTVSS VL: NFTLTQPHSVSGSPGKTVTISCTRSSGGIASSHVQWYQQRPASAPTTLIFEDDQRSSGVPDRFSGSIDTSSNSAYLTISGLEAEDEADYYCQSYDNSMWVFGGGSKVTVL | no binding (tested: 2 ng/µL) |
